Results on two molecules are retold here after patent publication US6670136 (TRUSTEES OF COLUMBIA UNIVERSITY IN THE CITY OF NEW YORK, dated 2003).

The target in assay [1] is cellular RAGE on human cells (HUVEC, Molt-4, PBMC, Jurkat) (human, UniProt Q15109 23-404). In words: cell-based or functional assay.
Assay [2] deals with T1, RAGE on macrophage-like BV2 cells (macrophage (MP) RAGE) (UniProt Q62151 23-402, limits assumed).
T1 construct: whole, on cells; also called BV-2 macrophages
Put plainly: binding to macrophage RAGE in culture wells.

Assay [3] concerns the target T2, human soluble RAGE (sRAGE), prepared from a baculovirus expression system (human, UniProt Q15109 23-342).
T2 construct: extracellular domain; Murine sRAGE was used only in the in vivo studies; also called purified RAGE; immobilized RAGE
Put plainly: binding to immobilized RAGE in culture wells. The method, then:
(Panel C–D) EN-RAGE binds purified RAGE (C) and BAECs (D): In C, human soluble RAGE was immobilized onto the wells of plastic dishes and in D, confluent BAECs were cultured onto tissue culture-treated wells. […] Where indicated, radiolabelled EN-RAGE (100 nM) was incubated with the indicated amount of excess sRAGE two hours prior to binding assay, or wells were preincubated for two hours with the indicated concentration of rabbit nonimmune IgG, or polyclonal monospecific rabbit anti-EN-RAGE IgG or anti-RAGE: IgG prior to binding assay and results reported as % maximal specific binding ±SD of the mean. These experiments were performed at least five times with analogous results.
(§1) Radioligand binding assays were performed in 96-well dishes to which had been adsorbed either purified human RAGE (5 μg/well) or bovine aortic endothelial cells. In the former case, after adsorption of human soluble RAGE to the plastic dish in carbonate/bicarbonate buffer (pH 9.3) overnight, wells were then washed with PBS containing Tween 20 (0.05%). Unoccupied binding sites on the plastic wells were blocked by incubation with PBS containing calcium/magnesium and bovine serum albumin (1%) for two hours at 37° C. […] Solution was then aspirated from the wells and counted in a gamma counter (LKB, Gaithersburg, Md.).

Assay [4] concerns the target T3, RAGE on bovine aortic endothelial cells (BAEC RAGE) (bovine, UniProt Q28173 23-416).
T3 construct: whole, on cells; The target is endogenous RAGE on confluent BAEC monolayers; also called BAECs; endothelial (EC) RAGE
T3 sequence (looked up): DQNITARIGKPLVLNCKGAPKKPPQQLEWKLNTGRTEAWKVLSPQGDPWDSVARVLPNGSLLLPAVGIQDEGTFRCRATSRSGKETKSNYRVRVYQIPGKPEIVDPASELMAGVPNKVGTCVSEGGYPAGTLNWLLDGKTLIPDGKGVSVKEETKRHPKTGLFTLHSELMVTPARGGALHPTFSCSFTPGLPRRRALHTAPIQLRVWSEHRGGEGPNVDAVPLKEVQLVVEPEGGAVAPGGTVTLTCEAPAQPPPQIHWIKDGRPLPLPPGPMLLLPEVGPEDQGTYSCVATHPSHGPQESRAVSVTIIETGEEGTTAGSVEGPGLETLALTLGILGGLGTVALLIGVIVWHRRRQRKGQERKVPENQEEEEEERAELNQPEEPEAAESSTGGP
In words: binding to endothelial cell RAGE in culture wells. On the procedure: (§2) Where indicated, radiolabelled EN-RAGE (100 nM) was incubated with the indicated amount of excess sRAGE two hours prior to binding assay, or wells were preincubated for two hours with the indicated concentration of rabbit nonimmune IgG, or polyclonal monospecific rabbit anti-EN-RAGE IgG or anti-RAGE: IgG prior to binding assay and results reported as % maximal specific binding ±SD of the mean. These experiments were performed at least five times with analogous results.
as §1, with “C. After aspiration of the wells, a radioligand binding assay was performed in the presence of the indicated concentration of radiolabelled EN-RAGE ± an 50-fold molar excess of unlabelled EN-RAGE in PBS containing calcium/magnesium and BSA, 0.2%, for 3 hrs at 37° C.” for “C.”, “Md.). […]” for “Md.).”

Assay [5] has as its target T3, RAGE on bovine aortic endothelial cells …. Put plainly: radioligand binding: 125I-EN-RAGE on confluent bovine aortic endothelial cells. The method, then: as §2
as §1, with “C. After aspiration of the wells, a radioligand binding assay was performed in the presence of the indicated concentration of radiolabelled EN-RAGE ± an 50-fold molar excess of unlabelled EN-RAGE in PBS containing calcium/magnesium and BSA, 0.2%, for 3 hrs at 37° C.” for “C.”, “Md.). […]” for “Md.).”

The target in assay [6] is T2, human soluble RAGE (sRAGE), prepared …. Put plainly: radioligand binding: 125I-EN-RAGE on human sRAGE adsorbed to plastic wells, with or without 50-fold unlabelled EN-RAGE. The method, then:
as §2
as §1, with “C. After aspiration of the wells, a radioligand binding assay was performed in the presence of the indicated concentration of radiolabelled EN-RAGE ± an 50-fold molar excess of unlabelled EN-RAGE in PBS containing calcium/magnesium and BSA, 0.2%, for 3 hrs at 37° C.” for “C.”, “Md.). […]” for “Md.).”

cellular RAGE on human cells (HUVEC, Molt-4, PBMC, Jurkat), sequence (Q15109 23-404): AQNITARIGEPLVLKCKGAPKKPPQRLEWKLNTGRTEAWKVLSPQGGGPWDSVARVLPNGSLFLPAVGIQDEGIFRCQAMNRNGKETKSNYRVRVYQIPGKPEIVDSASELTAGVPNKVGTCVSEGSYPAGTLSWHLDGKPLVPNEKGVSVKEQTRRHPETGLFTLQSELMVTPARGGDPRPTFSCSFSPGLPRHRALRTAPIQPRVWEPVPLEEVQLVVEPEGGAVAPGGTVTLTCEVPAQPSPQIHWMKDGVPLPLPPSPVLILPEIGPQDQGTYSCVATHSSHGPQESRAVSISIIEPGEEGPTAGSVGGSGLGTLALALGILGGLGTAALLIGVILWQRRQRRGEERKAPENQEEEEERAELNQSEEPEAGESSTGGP
T2 sequence (Q15109 23-342): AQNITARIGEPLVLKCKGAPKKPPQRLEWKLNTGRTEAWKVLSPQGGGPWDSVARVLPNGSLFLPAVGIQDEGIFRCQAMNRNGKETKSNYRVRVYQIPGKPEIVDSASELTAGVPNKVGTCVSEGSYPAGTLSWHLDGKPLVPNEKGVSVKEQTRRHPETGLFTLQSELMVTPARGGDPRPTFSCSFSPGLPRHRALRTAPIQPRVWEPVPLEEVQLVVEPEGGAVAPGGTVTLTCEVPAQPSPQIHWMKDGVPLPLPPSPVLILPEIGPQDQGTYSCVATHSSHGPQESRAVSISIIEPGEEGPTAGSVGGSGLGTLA
T1 sequence (Q62151 23-402 limits assumed): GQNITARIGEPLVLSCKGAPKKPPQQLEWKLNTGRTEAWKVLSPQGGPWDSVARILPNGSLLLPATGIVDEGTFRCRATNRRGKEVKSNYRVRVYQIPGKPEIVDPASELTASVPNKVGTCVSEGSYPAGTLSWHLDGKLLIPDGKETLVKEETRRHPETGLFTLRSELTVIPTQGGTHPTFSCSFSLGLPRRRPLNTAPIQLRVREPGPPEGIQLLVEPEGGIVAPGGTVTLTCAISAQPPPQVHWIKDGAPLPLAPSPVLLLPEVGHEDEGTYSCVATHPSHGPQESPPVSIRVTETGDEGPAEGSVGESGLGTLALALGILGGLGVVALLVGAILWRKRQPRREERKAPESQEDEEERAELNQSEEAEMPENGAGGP

B1: purified S100B from human brain (Calbiochem-Novabiochem) (ligand, UniProt P04271 2-92, looked up)
chain: SELEKAMVALIDVFHQYSGREGDKHKLKKSELKELINNELSHFLEEIKEQEVVDKVMETLDNDGDGECDFQEFMAFVAMVTTACHEFFEHE
Consider B1, for which, in assay [1], the “nuclear translocation of NF-kB in HUVEC (EMSA)” value was about 13.9 fold.

B2: EN-RAGE (Extracellular Novel RAGE binding protein), recombinant bovine, expressed in Sf9 cells (ligand)
chain: TKLEDHLEGIINIFHQYSVRVGHFDTLNKRELKQLITKELPKTLQNTKDQPTIDKIFQDLDADKDGAVSFEEFVVLVSRVLKTAHIDIHK
notes: Recombinant protein made from a bovine lung cDNA in baculovirus/Sf9; In the cell assays it was unlabelled; also called radiolabelled EN-RAGE
The Kd is the equilibrium constant for the complex coming apart. Turning to B2, the “adhesion of Molt-4 cells to cultured ECs” value in assay [1] was determined as 7 fold. Further, in assay [1], the “expression of cell-surface VCAM-1 on cultured ECs” value was 4.3 fold. Moreover, the “nuclear NF-kB in HUVEC (EMSA, densitometry)” value in assay [1] is about 5 fold. Moreover, the dissociation constant (Kd) in assay [2] is about 75 nM; in assay [3], about 75 nM; in assay [4], about 75 nM; in assay [5], about 90.3 nM; in assay [6], about 91 nM.
